Data reported in publication PMC5625035.

Target: PNKP (UniProt Q96T60)
Assay: Ni-NTA co-purification of XRCC1-His complexes, immunoblot
Conditions: reference: wild-type XRCC1-His; sites S518,T519,T523

Substance: XRCC1 (from UniProt P18887) XRCC1-His S518A/T519A/T523A
- binding against the reference: weaker
